The text below walks through data of publication doi:10.1101/2025.01.15.633165, “The mechanism of DRB7.2:DRB4 mediated sequestering of endogenous inverted-repeat dsRNA precursors in plants” (bioRxiv, 2025).

“And” between values parts separate entries of the source, which are not always exact repeats. Equal values may be shown once.

In general, stoichiometry N refers to a count of units in the complex or per binding partner.

B4: DRB4 (1-355) (natural protein, A. thaliana, UniProt Q8H1D4 1-355, looked up)
chain: MDHVYKGQLQAYALQHNLELPVYANEREGPPHAPRFRCNVTFCGQTFQSSEFFPTLKSAEHAAAKIAVASLTPQSPEGIDVAYKNLLQEIAQKESSLLPFYATATSGPSHAPTFTSTVEFAGKVFSGEEAKTKKLAEMSAAKVAFMSIKNGNSNQTGSPTLPSERQEDVNSNVKSSPQEIHSQPSSKVVMTPDTPSKGIKVNEDEFPDLHDAPASNAKEINVALNEPENPTNDGTLSALTTDGMKMNIASSSLPIPHNPTNVITLNAPAANGIKRNIAACSSWMPQNPTNDGSETSSCVVDESEKKKLIMGTGHLSIPTGQHVVCRPWNPEITLPQDAEMLFRDDKFIAYRLVKP
notes: DRB4, A. thaliana, UniProt Q8H1D4, residues 1-355; source: cloned, expressed and purified as described (Chiliveri et al, 2017)
B5: DRB7.2 (M1-V190) (natural protein, A. thaliana, UniProt F4JHB3 1-190, looked up)
chain: MDLPPPESSSNPISSFSVAQKRMLLQRCESKFKIRKLNDTVEEDNVTQMEPNFTLENTLVSEPEADLRPHTTEPTTEEETQRSSAKSQLYNLCSVRHWKAPLYEYIAEGPCHMKIFTGKVTVEMKEDSRITVLECFGNPQYKKKIAAEQAAEAALWYLKNVGYTLQTEKASGRKGRSKPISKMMVTGEPV
notes: DRB7.2, A. thaliana, UniProt F4JHB3, residues M1-V190; Perdeuterated and U-15N labelled for NMR; Further cloning details are in Paturi & Deshmukh, 2023; also called full-length DRB7.2

In data set [1] the target is T1, DRB7.2N (Arabidopsis thaliana, UniProt F4JHB3 1-81).
T1 sequence: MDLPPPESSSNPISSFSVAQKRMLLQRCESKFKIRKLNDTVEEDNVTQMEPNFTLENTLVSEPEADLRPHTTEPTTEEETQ
The data set can be described thus: EMSA; 20 uM protein, 750 nM RNA; EMSA: 50 mM potassium phosphate pH 7.0, 50 mM NaCl, 50 mM Na2SO4, 2 mM DTT; 40 bp RNA at 750 nM, 30 min, room temperature; 32P 80 bp dsRNA at 1 nM, 1 h, 4 C. As to conditions: protein: recombinant, tags: His6 (pET28a), label: none (SYBR Gold stain), 1 nt 3' overhang (C) on complementary strand. For orientation: Mobility shift assays separate free from complexed probe on a gel.

Data set [2] concerns the target T2, DRB7.2;DRB4 (Arabidopsis thaliana;Arabidopsis …, UniProt F4JHB3;Q8H1D4 1-190;1-355, |).
T2 sequence 1: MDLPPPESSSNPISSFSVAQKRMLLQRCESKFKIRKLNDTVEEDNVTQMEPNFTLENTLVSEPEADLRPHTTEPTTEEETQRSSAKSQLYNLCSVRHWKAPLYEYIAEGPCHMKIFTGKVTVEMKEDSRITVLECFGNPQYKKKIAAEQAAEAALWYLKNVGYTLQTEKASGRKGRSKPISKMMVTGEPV
T2 sequence 2: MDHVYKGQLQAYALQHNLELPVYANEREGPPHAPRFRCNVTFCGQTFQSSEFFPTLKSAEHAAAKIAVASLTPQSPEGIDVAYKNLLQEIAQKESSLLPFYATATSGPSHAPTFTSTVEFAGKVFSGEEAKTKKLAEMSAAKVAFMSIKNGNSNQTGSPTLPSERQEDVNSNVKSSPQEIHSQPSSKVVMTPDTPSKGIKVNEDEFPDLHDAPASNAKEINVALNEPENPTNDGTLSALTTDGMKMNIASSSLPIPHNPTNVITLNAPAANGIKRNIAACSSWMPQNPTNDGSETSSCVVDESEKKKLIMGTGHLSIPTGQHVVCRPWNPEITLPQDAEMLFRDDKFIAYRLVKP
Put plainly: EMSA; apparent Kd; Hill 2.05±0.65; EMSA: 50 mM potassium phosphate pH 7.0, 50 mM NaCl, 50 mM Na2SO4, 2 mM DTT; 40 bp RNA at 750 nM, 30 min, room temperature; 32P 80 bp dsRNA at 1 nM, 1 h, 4 C. Particulars: protein: recombinant;recombinant, tags: His6 tag with TEV cleavage (pETtrx-1b);, label: none (SYBR Gold stain), 1 nt 3' overhang (C) on complementary strand.

For data set [3], the target named is T3, DRB4 (Arabidopsis thaliana, UniProt Q8H1D4 1-355).
T3 sequence: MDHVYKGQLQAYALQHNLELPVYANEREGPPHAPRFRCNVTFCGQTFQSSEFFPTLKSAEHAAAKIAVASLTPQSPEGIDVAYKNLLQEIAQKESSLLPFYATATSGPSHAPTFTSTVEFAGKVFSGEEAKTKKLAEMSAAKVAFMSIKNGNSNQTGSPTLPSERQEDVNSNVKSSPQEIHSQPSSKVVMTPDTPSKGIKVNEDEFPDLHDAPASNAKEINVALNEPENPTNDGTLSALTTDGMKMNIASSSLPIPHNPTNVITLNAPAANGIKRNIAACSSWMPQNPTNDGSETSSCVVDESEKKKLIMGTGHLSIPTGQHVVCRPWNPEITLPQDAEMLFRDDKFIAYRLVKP
The data set can be described thus: EMSA; apparent Kd; Hill 2.44±0.45; EMSA: 50 mM potassium phosphate pH 7.0, 50 mM NaCl, 50 mM Na2SO4, 2 mM DTT; 40 bp RNA at 750 nM, 30 min, room temperature; 32P 80 bp dsRNA at 1 nM, 1 h, 4 C. Particulars: protein: recombinant, label: none (SYBR Gold stain), 1 nt 3' overhang (C) on complementary strand.

The target of data set [4] is T4, DRB7.2 (Arabidopsis thaliana, UniProt F4JHB3 1-190).
T4 sequence: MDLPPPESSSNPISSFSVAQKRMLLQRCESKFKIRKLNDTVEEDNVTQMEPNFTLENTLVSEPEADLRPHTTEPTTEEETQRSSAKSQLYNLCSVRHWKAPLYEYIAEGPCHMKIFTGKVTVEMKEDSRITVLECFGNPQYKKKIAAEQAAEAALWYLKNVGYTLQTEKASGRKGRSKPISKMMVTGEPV
The data set can be described thus: EMSA; apparent Kd; Hill 2.68±0.77; EMSA: 50 mM potassium phosphate pH 7.0, 50 mM NaCl, 50 mM Na2SO4, 2 mM DTT; 40 bp RNA at 750 nM, 30 min, room temperature; 32P 80 bp dsRNA at 1 nM, 1 h, 4 C. Particulars: protein: recombinant, tags: His6 tag with TEV cleavage (pETtrx-1b), label: none (SYBR Gold stain), 1 nt 3' overhang (C) on complementary strand.

The target of data set [5] is T5, DRB4D3 (Arabidopsis thaliana, UniProt Q8H1D4 294-355).
T5 sequence: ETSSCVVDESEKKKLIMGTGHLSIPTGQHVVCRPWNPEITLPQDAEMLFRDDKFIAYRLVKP
Put plainly: EMSA; 20 uM protein, 750 nM RNA; also higher concentrations; EMSA: 50 mM potassium phosphate pH 7.0, 50 mM NaCl, 50 mM Na2SO4, 2 mM DTT; 40 bp RNA at 750 nM, 30 min, room temperature; 32P 80 bp dsRNA at 1 nM, 1 h, 4 C. As to conditions: protein: recombinant, label: none (SYBR Gold stain), 1 nt 3' overhang (C) on complementary strand.

Data set [6] deals with T5, DRB4D3. Put plainly: EMSA; EMSA: 50 mM potassium phosphate pH 7.0, 50 mM NaCl, 50 mM Na2SO4, 2 mM DTT; 40 bp RNA at 750 nM, 30 min, room temperature; 32P 80 bp dsRNA at 1 nM, 1 h, 4 C. As to conditions: protein: recombinant; Methods text mentions 1 nt 3' overhang.
Data set [7] concerns the target T4, DRB7.2. Put plainly: EMSA; saturation at ~2 uM; 1 nM RNA, 4 C; EMSA: 50 mM potassium phosphate pH 7.0, 50 mM NaCl, 50 mM Na2SO4, 2 mM DTT; 40 bp RNA at 750 nM, 30 min, room temperature; 32P 80 bp dsRNA at 1 nM, 1 h, 4 C. As to conditions: protein: recombinant; tags: His6 tag with TEV cleavage (pETtrx-1b); Methods text mentions 1 nt 3' overhang.
The target of data set [8] is T6, DRB7.2M (Arabidopsis thaliana, UniProt F4JHB3 71-162).
T6 sequence: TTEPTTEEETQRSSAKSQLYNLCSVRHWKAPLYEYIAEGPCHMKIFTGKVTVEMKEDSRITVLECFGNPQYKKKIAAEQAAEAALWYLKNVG
Described as above. Particulars: protein: recombinant; tags: His6 tag with TEV cleavage (pETtrx-1b); Methods text mentions 1 nt 3' overhang.

In data set [9] the target is T7, DRB7.2M;DRB4D3 (Arabidopsis thaliana;Arabidopsis …, UniProt F4JHB3;Q8H1D4 71-162;294-355, |).
T7 sequence 1: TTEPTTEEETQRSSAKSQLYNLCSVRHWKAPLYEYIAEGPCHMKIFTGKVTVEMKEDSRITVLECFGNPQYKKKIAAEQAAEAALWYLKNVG
T7 sequence 2: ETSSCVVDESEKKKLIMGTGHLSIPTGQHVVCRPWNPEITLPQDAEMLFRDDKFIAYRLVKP
The data set can be described thus: EMSA; saturation at ~2 uM; 1 nM RNA, 4 C; ternary complex also in Fig. S11D; EMSA: 50 mM potassium phosphate pH 7.0, 50 mM NaCl, 50 mM Na2SO4, 2 mM DTT; 40 bp RNA at 750 nM, 30 min, room temperature; 32P 80 bp dsRNA at 1 nM, 1 h, 4 C. As to conditions: protein: recombinant;recombinant; tags: His6 tag with TEV cleavage (pETtrx-1b);; copies: 1;1; Methods text mentions 1 nt 3' overhang.

The target of data set [10] is T8, DRB7.2M (T71-G162) (A. thaliana, UniProt F4JHB3 71-162).
T8 construct: DRB7.2, A. thaliana, UniProt F4JHB3, residues T71-G162 (dsRBD S84-G162 with the N-terminal flanking residues T71-S83); Isotope labelled (15N, 13C, 2H) or perdeuterated for NMR; Further cloning details are in Paturi & Deshmukh, 2023; also called dsRBD region of DRB7.2; DRB7.2 dsRBD
T8 sequence (looked up): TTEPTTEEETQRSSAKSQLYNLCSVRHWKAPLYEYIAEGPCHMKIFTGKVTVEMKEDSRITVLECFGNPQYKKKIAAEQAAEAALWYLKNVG
Put plainly: MALDI-TOF MS; samples after SEC; 0.5 mg/mL, 2 mg/mL and 5 mg/mL. Particulars: both partners purified.

In data set [11] the target is T8, DRB7.2M (T71-G162). Put plainly: ITC; DRB4D3 and the preformed complex of DRB7.2M:80 bp dsRNA; one site binding model. Particulars: both partners purified. A general note: In ITC the heat of successive injections is recorded.
In data set [12] the target is B5. The data set can be described thus: ITC; DRB4 constructs (200 μM, syringe) injected into DRB7.2 or DRB7.2M (20 μM, cell); 25 °C; 50 mM potassium phosphate pH 7.0, 50 mM NaCl, 50 mM Na2SO4, 2 mM DTT. As to conditions: both partners purified.
For data set [13], the target named is T8, DRB7.2M (T71-G162). Described as above. Particulars: both partners purified.
In data set [14] the target is B4. The data set is described as above. As to conditions: both partners purified.
The target of data set [15] is T9, DRB4C (154-355) (A. thaliana, UniProt Q8H1D4 154-355).
T9 construct: DRB4, A. thaliana, UniProt Q8H1D4, residues 154-355 (flexible segment N154-S293 and domain D3 E294-P355); source: cloned, expressed and purified as described (Chiliveri et al, 2017)
T9 sequence (looked up): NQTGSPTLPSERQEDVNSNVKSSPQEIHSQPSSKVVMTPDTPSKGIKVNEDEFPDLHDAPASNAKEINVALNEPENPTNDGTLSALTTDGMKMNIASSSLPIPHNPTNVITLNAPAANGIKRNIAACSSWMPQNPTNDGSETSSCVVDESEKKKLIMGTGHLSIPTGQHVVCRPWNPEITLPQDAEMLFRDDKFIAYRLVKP
The data set is described as above. Particulars: both partners purified.

B1: 40 bp RNA (pre-siRNA) (dsRNA)
RNA 1: AACAAGCGAAUGAGUCAUUCAUCCUAAGUCUGCAUAAAGU
RNA 2: ACUUUAUGCAGACUUAGGAUGAAUGACUCAUUCGCUUGUUC
modifications: 5'-phosphate on guide strand
Regarding B1, the binding result in [1] and in [5] was “no binding” throughout. Besides, the values for the Kd in [2], in data set [3] and in data set [4] were 1020 ± 170 nM, 3600 ± 310 nM and 2280 ± 270 nM, respectively.

B2: 80 bp dsRNA (dsRNA)
RNA 1: GGGUGCUGUUUCUCGUGUUCGUGUUCGUUUCUCUUCUCUUGUCCUUGUUCUGUUCUCCUUUGUUCGUUCCUGUUCCCCUU
RNA 2: AAGGGGAACAGGAACGAACAAAGGAGAACAGAACAAGGACAAGAGAAGAGAAACGAACACGAACACGAGAAACAGCACCC
As for B2, the binding result in data set [6] is reported as “no binding”; in [7] it was “binds”; in data set [8], “binds”; in data set [9] it was “binds”.

B3: DRB4D3 (294-355) (domain or fragment, A. thaliana, UniProt Q8H1D4 294-355, looked up)
chain: ETSSCVVDESEKKKLIMGTGHLSIPTGQHVVCRPWNPEITLPQDAEMLFRDDKFIAYRLVKP
notes: DRB4, A. thaliana, UniProt Q8H1D4, residues 294-355 (E294-P355); Isotope labelled (15N, 13C, 2H) or perdeuterated for NMR; source: cloned, expressed and purified as described (Chiliveri et al, 2017)
Turning to B3, the results for the “stoichiometry N” value in [10], in data set [11] and in data set [13] were 1, 0.81 and 0.95, respectively. Also, the Kd in data set [11] was 9.43 nM and ~9.5 nM; in data set [12], 2.2 ± 1.2 nM; in [13], 2.84 ± 1.15 nM.

Take B4: the “stoichiometry N” value in [12] stood at 0.8.

Consider B5, for which the Kd was 3.1 ± 1.5 nM in data set [14] and 2.8 ± 1.6 nM in data set [15].
